Measured values taken from paper PMC9191346.

Molecular target: enhanced green fluorescent protein-labeled BLM (BLM-eGFP) (not stated (Gallus gallus or human BLM cloned))
Assay: optical tweezers with confocal fluorescence microscopy

## enhanced green fluorescent protein-labeled BLM (BLM-eGFP) (domain or fragment)
  rupture force of the DNA tether bridged by the oligomeric BLM: < 300 pN
